Biological target: Rictor (R28 cells)
Experiment: co-IP (Rictor IP) with DSP crosslinker, western blot band quantification
Settings: TNF+HG treatment

Substance	ratio to parent
3X-FLAG-tagged wild-type HSPB4 (αA-crystallin) (from UniProt P02489) R21A	0.35
3X-FLAG-tagged wild-type HSPB4 (αA-crystallin) (from UniProt P02489) R49A	0.26
3X-FLAG-tagged wild-type HSPB4 (αA-crystallin) (from UniProt P02489) T148A	0.75
3X-FLAG-tagged wild-type HSPB4 (αA-crystallin) (from UniProt P02489) T148D	0.11

Reference: paper PMC11640050
